Measurements as given in US20250051465A1 (published 2025).

What was measured:
[1] = target: T1, full length human LEPR on cells (human, UniProt P48357 22-1165); experiment: cell-based or functional assay
T1 sequence: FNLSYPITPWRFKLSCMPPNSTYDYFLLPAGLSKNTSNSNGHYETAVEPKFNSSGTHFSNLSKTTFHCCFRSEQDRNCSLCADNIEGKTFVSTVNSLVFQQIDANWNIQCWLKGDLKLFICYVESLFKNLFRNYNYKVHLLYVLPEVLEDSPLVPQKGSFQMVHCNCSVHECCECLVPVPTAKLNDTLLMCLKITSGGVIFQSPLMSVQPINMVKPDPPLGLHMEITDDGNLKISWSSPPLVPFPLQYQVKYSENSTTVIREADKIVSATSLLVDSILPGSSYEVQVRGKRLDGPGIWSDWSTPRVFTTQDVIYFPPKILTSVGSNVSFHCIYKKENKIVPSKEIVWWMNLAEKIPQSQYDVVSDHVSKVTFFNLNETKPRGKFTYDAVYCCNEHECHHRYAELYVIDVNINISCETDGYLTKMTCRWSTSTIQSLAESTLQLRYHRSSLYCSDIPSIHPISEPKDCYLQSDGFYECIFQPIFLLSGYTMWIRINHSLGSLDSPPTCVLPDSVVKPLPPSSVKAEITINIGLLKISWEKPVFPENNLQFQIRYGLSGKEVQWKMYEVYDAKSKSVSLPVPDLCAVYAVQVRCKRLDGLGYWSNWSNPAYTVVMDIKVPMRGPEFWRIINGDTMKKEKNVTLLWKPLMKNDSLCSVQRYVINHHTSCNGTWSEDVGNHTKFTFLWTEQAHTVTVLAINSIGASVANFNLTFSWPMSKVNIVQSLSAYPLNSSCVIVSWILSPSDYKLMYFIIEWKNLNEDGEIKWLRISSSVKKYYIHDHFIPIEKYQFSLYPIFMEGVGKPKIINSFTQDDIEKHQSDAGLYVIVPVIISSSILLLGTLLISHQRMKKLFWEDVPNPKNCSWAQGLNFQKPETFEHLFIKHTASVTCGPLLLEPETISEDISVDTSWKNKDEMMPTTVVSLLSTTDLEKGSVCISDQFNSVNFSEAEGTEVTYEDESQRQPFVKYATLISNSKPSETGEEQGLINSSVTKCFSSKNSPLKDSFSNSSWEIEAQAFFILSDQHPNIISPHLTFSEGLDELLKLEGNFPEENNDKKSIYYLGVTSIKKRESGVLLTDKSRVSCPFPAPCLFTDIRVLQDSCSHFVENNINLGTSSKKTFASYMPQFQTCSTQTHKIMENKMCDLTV

human LEPR CRH1 (D1)-MMH = target: T2, human LEPR CRH1 (D1)-MMH (human, UniProt P48357 22-229, limits assumed); experiment: Luminex, myc-captured LEPR domain
T2 construct: domain: CRH1 (D1); Transiently expressed, captured from supernatant on anti-myc beads
Experimental: (§1) Aliquots of microspheres with immobilized anti-myc monoclonal antibodies, prepared as described above, were added individually to 1 mL of the each of these protein supernatants. The microspheres were gently mixed, incubated for two hours at 25° C., washed twice with 1 mL of DBPS, centrifuged to remove the supernatant and finally resuspended in 1 mL of DPBS buffer. Forty-eight μL of anti-myc IgG coupled microspheres from individual reactions with full length human LEPR and with each of the human LEPR domain proteins were withdrawn and mixed together in 3.6 mL of PBS+20 mg/mL BSA+0.05% sodium azide (blocking buffer).
(§2) From this mixed pool, 75 μL of microspheres were plated per well on a 96 well filter plate (Millipore, Cat. No: MSBVN1250) and mixed with 25 μL of individual anti-human LEPR monoclonal antibodies (0.5 or 5 µg/mL), incubated for two hours at 25° C. and then washed twice with 200 μL of DPBS with 0.05% Tween 20 (washing buffer). […] After 30 minutes, the samples were washed twice with 200 μL of washing buffer and resuspended in 150 μL of wash buffer. The Median Fluorescence intensity (MFI) of the microspheres was measured in a Luminex Analyzer.

[2] = target: T3, human LEPR CRH1 (D1,D2)-MMH (human, UniProt P48357 22-339, limits assumed); experiment: Luminex, myc-captured LEPR domain
T3 construct: domain: CRH1 (D1,D2); Transiently expressed, captured from supernatant on anti-myc beads
Experimental: as §1, §2

[3] = target: T4, human LEPR CRH1 (D1,D2,D3)-MMH (human, UniProt P48357 22-427, limits assumed); experiment: Luminex, myc-captured LEPR domain
T4 construct: domain: CRH1-Ig (D1,D2,D3); Transiently expressed, captured from supernatant on anti-myc beads; also called CRH1-Ig (D1, D2, D3)
Experimental: as §1, §2

[4] = target: T5, human LEPR CRH1-Ig (D2,D3)-MMH (human, UniProt P48357 230-427, limits assumed); experiment: Luminex, myc-captured LEPR domain
T5 construct: domain: CRH1-Ig (D2,D3); Transiently expressed, captured from supernatant on anti-myc beads
T5 sequence (P48357 other isoform, or with tags, fused parts or gaps limits assumed): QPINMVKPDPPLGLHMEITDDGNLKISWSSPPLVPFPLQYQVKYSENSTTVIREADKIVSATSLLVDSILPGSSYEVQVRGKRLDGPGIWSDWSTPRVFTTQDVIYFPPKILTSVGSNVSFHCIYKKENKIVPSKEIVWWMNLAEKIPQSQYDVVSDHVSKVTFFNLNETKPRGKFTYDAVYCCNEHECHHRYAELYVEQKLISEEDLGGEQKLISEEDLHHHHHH
Experimental: as §1, §2

human LEPR Ig (D3)-MMH = target: T6, human LEPR Ig (D3)-MMH (human, UniProt P48357 340-427, limits assumed); experiment: Luminex, myc-captured LEPR domain
T6 construct: domain: Ig (D3); Transiently expressed, captured from supernatant on anti-myc beads
T6 sequence (P48357 other isoform, or with tags, fused parts or gaps limits assumed): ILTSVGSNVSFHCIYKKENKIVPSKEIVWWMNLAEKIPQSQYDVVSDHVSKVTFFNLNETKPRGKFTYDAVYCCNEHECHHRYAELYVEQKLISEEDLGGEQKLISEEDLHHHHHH
Experimental: as §1, §2

human LEPR CRH2-MMH = target: T7, human LEPR CRH2-MMH (human, UniProt P48357 428-634, limits assumed); experiment: Luminex, myc-captured LEPR domain
T7 construct: domain: CRH2; Transiently expressed, captured from supernatant on anti-myc beads
T7 sequence (P48357 other isoform, or with tags, fused parts or gaps limits assumed): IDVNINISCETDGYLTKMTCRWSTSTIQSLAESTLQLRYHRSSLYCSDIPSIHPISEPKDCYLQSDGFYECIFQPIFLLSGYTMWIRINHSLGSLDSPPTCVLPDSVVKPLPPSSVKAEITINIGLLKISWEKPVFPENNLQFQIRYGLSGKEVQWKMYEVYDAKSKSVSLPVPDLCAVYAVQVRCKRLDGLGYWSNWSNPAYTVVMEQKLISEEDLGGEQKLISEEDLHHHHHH
Experimental: as §1, §2

human LEPR FNIII-MMH = target: T8, human LEPR FNIII-MMH (human, UniProt P48357 636-839, limits assumed); experiment: Luminex, myc-captured LEPR domain
T8 construct: domain: FNIII; Transiently expressed, captured from supernatant on anti-myc beads
T8 sequence (P48357 other isoform, or with tags, fused parts or gaps limits assumed): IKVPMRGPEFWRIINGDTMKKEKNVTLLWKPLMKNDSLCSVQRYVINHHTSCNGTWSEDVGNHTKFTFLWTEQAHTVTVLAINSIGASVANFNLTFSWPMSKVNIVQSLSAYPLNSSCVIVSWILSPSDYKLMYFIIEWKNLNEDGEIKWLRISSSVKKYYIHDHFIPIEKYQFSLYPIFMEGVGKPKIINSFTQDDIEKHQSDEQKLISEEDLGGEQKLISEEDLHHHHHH
Experimental: as §1, §2

[5] = target: T9, human LEPR Ig-CRH2-FNIII-MMH (human, UniProt P48357 330-839, limits assumed); experiment: Luminex, myc-captured LEPR domain
T9 construct: domain: Ig-CRH2-FNIII; Transiently expressed, captured from supernatant on anti-myc beads
T9 sequence (P48357 other isoform, or with tags, fused parts or gaps limits assumed): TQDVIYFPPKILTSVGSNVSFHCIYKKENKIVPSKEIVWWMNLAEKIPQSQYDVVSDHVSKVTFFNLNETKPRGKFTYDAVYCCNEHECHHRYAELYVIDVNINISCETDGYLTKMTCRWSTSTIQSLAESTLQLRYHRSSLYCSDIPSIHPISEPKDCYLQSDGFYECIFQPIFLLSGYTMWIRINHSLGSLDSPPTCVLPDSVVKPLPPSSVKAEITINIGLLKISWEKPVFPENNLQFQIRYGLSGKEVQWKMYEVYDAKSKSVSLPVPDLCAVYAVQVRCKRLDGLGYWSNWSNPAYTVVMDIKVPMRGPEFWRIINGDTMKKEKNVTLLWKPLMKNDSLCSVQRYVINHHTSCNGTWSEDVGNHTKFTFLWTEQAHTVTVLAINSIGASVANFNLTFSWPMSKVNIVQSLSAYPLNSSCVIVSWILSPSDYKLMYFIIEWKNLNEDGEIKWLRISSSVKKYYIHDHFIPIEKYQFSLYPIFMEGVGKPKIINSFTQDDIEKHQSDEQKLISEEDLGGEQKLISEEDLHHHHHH
Experimental: as §1, §2

| Binder | % activation, with 200 pM human Leptin [1] | % activation, without human Leptin [1] | EC50, STAT3-Luc reporter, with 200 pM human Leptin [1] | EC50, STAT3-Luc reporter, without human Leptin [1] | MFI (human LEPR CRH1 (D1)-MMH) | MFI [2] | MFI [3] | MFI [4] | MFI (human LEPR Ig (D3)-MMH) | MFI (human LEPR CRH2-MMH) | MFI (human LEPR FNIII-MMH) | MFI [5] |
| --- | --- | --- | --- | --- | --- | --- | --- | --- | --- | --- | --- | --- |
| H4H16650P2 (antibody, human IgG4, V domains shown, Fully human antibody with human IgG4 Fc (H4H prefix)) VH: QVQLVESGGGVVQPGKSLRLSCVASGFTFSSDAMYWVRQAPGKGLEWVAVIYYDGNYQYYEDSVKGRFTISRDNSQNTLDLQMNSLRVDDTAVYFCARLNWDYWYLDLWGRGTLVTVSS VL: not shown | 88% | 68% | 5.19e-11 M | 0.0619 nM | 8 MFI | 4720 MFI | 2560 MFI | 74 MFI | 10 MFI | 16 MFI | 6 MFI | 110 MFI |
| H4H16679P2 (antibody, human IgG4, V domains shown, Fully human antibody with human IgG4 Fc (H4H prefix)) VH: QVQLVESGGGVVQPGRSLRLSCTASGFTFSSYAMYWVRQAPGKGLEWVSVIYYDGSYKYYADSVKGRFTISRDNSKNTLYLQMDSLRAEDTAVYYCASYNWNYWYFDFWGRGTLVTVSS VL: not shown | 88% | 65% | 7.37e-11 M | 0.0862 nM | 12 MFI | 4390 MFI | 2800 MFI | 34 MFI | 14 MFI | 33 MFI | 10 MFI | 42 MFI |
| H4H17321P2 (antibody, human IgG4, V domains shown, Fully human antibody with human IgG4 Fc (H4H prefix)) VH: QVQLVESGGGVVQPGRSLRLSCEASGFSSSDNAMYWVRQAPGKGLEWVSVIYHDGSYKYYEDSVKGRFTIARDNSKNTLYLQMNSLRAEDTAVYYCARYNWNHWYFDVWGRGTLVTVSS VL: not shown | 76% | 66% | 2.57e-10 M | 0.207 nM | 9 MFI | 2650 MFI | 1750 MFI | 15 MFI | 7 MFI | 116 MFI | 40 MFI | 14 MFI |
| H4H17319P2 (antibody, human IgG4, V domains shown, Fully human antibody with human IgG4 Fc (H4H prefix)) VH: QVQLVESGGSVVQPGRSLRLSCAASGFTFSTYAMYWVRQTPGKGLEWVAVLYSDGSNKYYIDSVKGRFTISRDTSTNTLYLQMSSLRADDSALYYCARLNWDYWYFDLWGRGTLVTVSS VL: not shown | 76% | 68% | 1.91e-10 M | 0.187 nM | 8 MFI | 1250 MFI | 938 MFI | 14 MFI | 8 MFI | 91 MFI | 20 MFI | 8 MFI |
| H4H18446P2 (antibody, human IgG4, V domains shown, Fully human antibody with human IgG4 Fc (H4H prefix)) VH: EVQLVESGGGLVQPGGSLRLSCAASGFTFSNYGMTWVRQAPGKGLEWVSAITGGGGSTYYSNSVKGRFTISRDNSKNTVYLRMNSVRAEDTAVYYCAKYKWNFVDDWGQGTTVTVSS VL: not shown | 68% | 6% | 3.42e-11 M | 0.373 nM | 17 MFI | 682 MFI |  |  | 25 MFI | 65 MFI | 32 MFI | 16900 MFI |
